Data: publication PMC2643003, “Improved Learning and Memory in Aged Mice Deficient in Amyloid β-Degrading Neutral Endopeptidase” (PLoS ONE, 2009)

Experiments:
[1] = assay type: in vitro ADME, mice
Protocol: Figure 5 NEP-dependent neuropeptide degradation. […] The reactions were stopped by adding 0.35 M perchloric acid. In parallel assays, heat-inactivated probes (5 min at 90°C) were used as a control. After centrifugation of sedimented proteins, HPLC analyses were performed by isocratic elution as described by Siems et al.. […] The reactions were stopped by addition of 0.35 M perchloric acid. In parallel assays, heat-inactivated NEP (5 min at 90°C) was used as a control. HPLC analysis was performed by isocratic elution as described. The significance of differences was calculated by two-sided t test; n≥4; **P<0.01. (c) For galanin and GLP-1 immunohistochemistry, slices were incubated with the specific antibodies, followed by incubation with biotinylated anti-rabbit IgG. Immunoreactive products were visualized by the nickel ammonium sulfate-intensified diaminobenzidine reaction. Unequivocally stained regions in the murine cortex were localized and defined as ROIs (regions of interest), and luminometrically compared with adjacent regions without detectable staining (reference ROIs) (for both regions n = 40). The calculated differences were shown as mean±s.e.m.). Significant differences were calculated by Student's t test, indicated by **P<0.01, ***P<0.001.
The production of brain membranes and the HPLC-monitored peptide degradation procedures were performed as described in detail by Siems et al.. […]

[2] = test system: associative and spatial learning; conditions: injected intracerebroventricularly; cited from earlier work
Description: It has been shown that NEP targets a variety of peptides involved in learning and memory such as oxytocin [36], NPY [37] or CCK [38]. Thus, marked improvement in learning and memory in very old NEP-deficient mice if compared with their aged-matched controls appears to be explained best by these NEP-degradable neuropeptides. Nevertheless, the known catalytic properties of NEP - it preferentially hydrolyses oligopeptides by cleaving on the N-terminal side of hydrophobic amino acid residues - and the knowledge of further potential learning-associated peptides [39]–[42] motivated us to t ...

recombinant (rc) NEP = target: T1, recombinant (rc) NEP (Homo sapiens, UniProt P08473); assay: HPLC-monitored peptide degradation by recombinant NEP; assay type: in vitro ADME; conditions: peptide 5 µM, rcNEP 20 ng (R&D Systems), over 120 min, stopped with 0.35 M perchloric acid, heat-inactivated control, HPLC isocratic elution, n≥3; values only in Figure 5a
T1 construct: purchased R&D Systems GmbH (Wiesbaden, Germany)
Protocol: The reactions were stopped by adding 0.35 M perchloric acid. In parallel assays, heat-inactivated probes (5 min at 90°C) were used as a control. After centrifugation of sedimented proteins, HPLC analyses were performed by isocratic elution as described by Siems et al. [45]. […] The reactions were stopped by addition of 0.35 M perchloric acid. In parallel assays, heat-inactivated NEP (5 min at 90°C) was used as a control. HPLC analysis was performed by isocratic elution as described [45].
The production of brain membranes and the HPLC-monitored peptide degradation procedures were performed as described in detail by Siems et al. [45]. […] The recombinant NEP was obtained from R&D Systems GmbH (Wiesbaden, Germany).

NEP [3] = conditions: infusion into hippocampus or cortical ventricle, young rats, 4 weeks, local Aβ accumulation; cited from earlier work
Description: The underlying mechanisms leading to better learning and improved LTP are still speculative. However, this improved learning seems more likely to be an Aβ-independent effect in our mouse model.

NEP [4] = conditions: rats and mice after treatment with thiorphan; cited from earlier work
Description: Consistent with previous studies showing a broad spectrum of peptidases inhibited by that peptidase inhibitor [18], we hypothesized that there were other factors inhibited by thiorphan as a requisite for murine Aβ accumulation.

T1 sequence (P08473 whole entry): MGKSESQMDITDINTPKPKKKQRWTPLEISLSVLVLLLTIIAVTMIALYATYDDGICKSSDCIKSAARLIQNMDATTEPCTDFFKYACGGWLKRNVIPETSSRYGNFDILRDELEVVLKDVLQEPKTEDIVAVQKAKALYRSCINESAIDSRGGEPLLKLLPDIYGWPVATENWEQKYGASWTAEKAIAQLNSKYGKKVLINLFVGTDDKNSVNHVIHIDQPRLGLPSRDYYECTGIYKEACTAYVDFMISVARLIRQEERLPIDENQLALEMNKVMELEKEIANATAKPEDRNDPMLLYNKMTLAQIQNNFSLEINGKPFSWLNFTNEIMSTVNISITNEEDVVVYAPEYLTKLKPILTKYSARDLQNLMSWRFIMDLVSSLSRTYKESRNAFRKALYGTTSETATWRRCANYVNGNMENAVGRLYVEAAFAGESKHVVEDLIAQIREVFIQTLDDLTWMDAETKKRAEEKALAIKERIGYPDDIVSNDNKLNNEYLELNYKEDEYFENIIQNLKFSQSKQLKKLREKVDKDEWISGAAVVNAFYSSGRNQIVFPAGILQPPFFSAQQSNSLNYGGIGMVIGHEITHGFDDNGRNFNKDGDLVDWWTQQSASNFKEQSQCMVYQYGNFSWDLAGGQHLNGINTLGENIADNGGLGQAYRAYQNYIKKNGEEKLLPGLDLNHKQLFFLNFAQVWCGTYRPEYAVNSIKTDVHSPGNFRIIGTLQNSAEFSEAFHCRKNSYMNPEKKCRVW

| Compound | peptide degradation in brain membranes of wild-type (+/+) and knockout mice (−/−) [1] | effect on associative and spatial learning [2] | degradation by rcNEP (recovery in %) (recombinant (rc) NEP) | effect on learning and memory (NEP [3]) | deposition of endogenous Aβ (NEP [4]) |
| --- | --- | --- | --- | --- | --- |
| glucagon-like peptide 1 [GLP-1] | reduced rate of GLP-1 degradation in brains lacking NEP | improve associative and spatial learning |  |  |  |
| galanin | identified galanin as a NEP substrate |  | identified galanin as a NEP substrate |  |  |
| O=C(O)CNC(=O)C(CS)Cc1ccccc1 (stereo not drawn) [thiorphan] |  |  |  | impaired learning and memory | plaque formation and fibrillization |
